Measurements reported in patent CN102050877A (NAT ENGINEERING RES CT OF ANTIBODY MEDICINE SHANGHAI CO LTD, dated 2011).

Biological target: T1, 人CD20 (on Raji cells) (human, UniProt P11836 1-297)
T1 construct: whole, on cells; No recombinant CD20 was used; also called Raja
T1 sequence (looked up): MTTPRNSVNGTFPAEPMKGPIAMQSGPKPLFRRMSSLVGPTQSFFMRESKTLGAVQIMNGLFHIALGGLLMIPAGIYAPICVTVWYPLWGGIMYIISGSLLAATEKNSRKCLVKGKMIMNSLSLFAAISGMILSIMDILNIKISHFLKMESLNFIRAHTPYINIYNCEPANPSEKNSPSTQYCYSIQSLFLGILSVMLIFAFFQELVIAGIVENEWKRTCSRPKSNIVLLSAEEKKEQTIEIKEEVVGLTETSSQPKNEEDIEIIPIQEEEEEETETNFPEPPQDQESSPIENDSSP
Test: in vitro antigen binding on Raji cells (flow cytometry)

- binding result: binds
B1: 抗人CD20人源化抗体hu8E4 (hu8E4Hb/hu8E4Lb) (antibody, human IgG1, kappa, V domains shown)
VH: EVQLVESGGGLVQPGGSLRLSCAASGFTFTSYNMHWVRQAPGKGLEWIGAIYPENGDTSYNQKFKDRATLTADKSKNTAYLQMNSLRAEDTAVYYCARWHYYGNGGALDYWGQGTLVTVSS
VL: DIQMTQSPSSLSASVGDRVTITCRASGNIHNYLAWYQQKPGKAPKLLVHNAKTLPDGVPSRFSGSGSGTDFTLTISSLQPEDFATYYCQQFWSNPWTFGQGTKVEIKR
notes: LCDR1 RASGNIHNYLA, LCDR2 NAKTLPD, LCDR3 QQFWSNPWT; The expression constructs carried signal peptides; also called hu8E4VHb/hu8E4VLb
